Measured values: the nanobody polyreactivity screen of Harvey et al. (2022)

Assay: yeast display, Sf9 membrane polyspecificity reagent, FACS + sequencing; frameworks hold sequencing errors
How it was run: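 A synthetic nanobody library was expressed on Saccharomyces cerevisiae BJ5465 by galactose induction for 36–48 hours. The library was stained for 1 hour at 4 °C with 10% biotinylated, detergent-solubilized Sf9 membrane reagent and enriched with streptavidin microbeads before FACS. Low and high (top ~1%) gates were set on anti-HA fluorescence for expression and streptavidin fluorescence for reagent binding, and each polyreactivity label reflects the gate of origin.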

Sequence	polyreactivity (PSR sort gate)
QVQLVESGGGLVQAGGSLRLSCAASGFTFSSYALGWSRQAPGKERELVAAISTRGGSTYYADSVKGRFTISRDNAKNTVYLQRNSLKPEDTADYYCATGGRGGRRYEYWGQGTQVTVSS	low polyreactivity
QDQLVESGGGLVQAGGSLRLSCAASGRTFPWYAMGWYRPAPGKERELVAAISTGGSRTYYADSVKGRFTISRDNAKNTVYLQMNSLKPEDTAVYYCNARNTLRDYPYGYWGQGTQVTVSS	high polyreactivity
QVHLVESGGGLVQAGGSLRLSCAAYGFIFYPYAMGWNRQEPGKERELVAAIDWNGGGTYYADSVKGRFTISRDNAKNTVYLQMNSLKPEDTAVYYCNTYGAYTFDYWGQGTQVTVSS	high polyreactivity
QVQLVESGRGLVQAGCSLRLSCPASGIIFTTYDMGWYRQAPGKERELVAAISSSTTNTYYADSVKWRFTISRDNAMNTVYLQMNSLKPEETAVYYCAAPYKSNAGFDYWGQGTQVTVSS	low polyreactivity
QVQLVESGGGLVQAGGSLRLSCAASGITFDENTMGWYRQAPGKERELVAAITEIGGSTYYADSVKGRFTISRDNAKNTVYLQMNSLKPEDTAVYYCNAARWVVRFVDYEYWGQGTQVTVSS	low polyreactivity
QVQLVESGGGLVQAGGSLRLSCAASGRIFSVNAMGWYRQAPGNERELVAAMTSGDSTNYADSVKGRFTISRDNAKNTVYLQMNSLKPEDNAVYYCNARGSQELWRRKWYHTEYDYWGQGTQVTVSS	low polyreactivity
QVQLVESGGGLVQAGGSLRLSCAASGRTFKGYTMGWYRQAPGKERELVAAITRSGGGTYYADSVKGRFTISRDNAKNTVYLQMNSLKPEDTAVYYCAARRPGYYYPSKFDYWGQGTQVTVSS	high polyreactivity
QVQLVESGGGLVQAGGSLRLSCAASGRTFYNYAMGWYRQAPGKERELVAAITRGGSTYYADSVKGRFTISRDNAKNTVYLQMNSLKPEDTAVYYCNAYYYIPFEGRGYSKMDYWGQGTQVTVSS	high polyreactivity
QVHLVESGGGLVQAGGSLRLTCAASGSIFLGHAMGWYRQAPGNERDLVAAISSITGRTYYADSVKGRFTISRDNAKNNVYLHMNSLKPEDTAVYYCNKVSRSFIVNTDDYWGQGTQVTVSS	high polyreactivity
QVQLVESGGGLVQAGGSLRLSCAASGFTFGKNAMGWYRQAPGKERELVAAIDTGDRTNYADSVKGRFTISRDNAKNTVYLQMNSLKPEDTAVYYCATDVVFSSYDYWGQGTQVTVSS	low polyreactivity
QVQLVESGGGLVQAGGSLRLSCAASGSTFEANAKGWYRQAPGKERELVAVITWTGGSTYYADSVKGRFTISRDYAKNTVYLQMNSLKPEDTAVYYCAAKFHRFAWYSHYDYWGQGTQVTVSS	low polyreactivity
QVQLVESGGGLVQAGGSLRLICAASGRISKRYTMGWYRQAPGKERELVAAINSSTSKSYADSVKGRFTISRDNAKNTVYLQMNSLKPEDTAVYYCNARYNYSYDYNYWGQGTQVTVSS	low polyreactivity
QVQLVESGGGLVQAGGSLRLSCAASGSIFSYYAMGWYRQSPGNERELVAAITWSGGSTNYADSVKGRFTISRDNAKNTVYLQMTSLKPEDTAVYYCAADYWAWGKNEYDYWGQGTQVTVSS	low polyreactivity
QVQLVESGGGLVQAGGSLRLSCAASGITFVGYAMGWYRQAPGKERELVAVINTSSSTYYADSVKGRFTISRDNAKNTVYLQMNSLKPVDTAVYYCADYAYYRYFIPAVLYDYWGQGTQVTVSS	low polyreactivity
QVQLVESGGGLVQAGGSLRLSCAASGIIFGTYAMGWYRQAPGKERELVAAINWSGGSTYYADSVKGRFTISRDNAKNTVYLQMNSLKPEDTAVYYCAADGNEYDYWGQGTQVTVSS	low polyreactivity
QVQLVESGGGLVLAGGRLRLSCAASGRIFTRYAMGCYRQAPGKERELVAVITRSGGSTYYADSVKGRFTISRDIAKNTVYLQMNSLKPEDTAVYYCAAKYYGEMYYWGQGTQVTVSS	low polyreactivity

Sequence	polyreactivity (PSR sort gate)
QVHLVESGGGLFQAGGSLRISCAASGRIFIGNAMGWYRPAPGKERELVAAISKRGGSTYYADSVKGRFTISRDYAKNTVYLQMNSLKPEDTAVYYCNKESLYREFDYWGQGTQVTVSS	low polyreactivity
QLQLVESVGGLVQAGGSLRLSCASSGLIFYVSAMGSYRQAPGKERELVAAITSSGASTYYADSVKGRFTISRDNAKNTVYLQMNSLKPEDTAVYYCAGRYAGGRRAYGYWGQGTQVSVSS	high polyreactivity
QVQLVESGGGLVQAGGSLRLSCAASGSTFQKNVMGWYRQAPGKERELVAAITSVGSTNYADSVKGRFTISRDNAKNTVYLQMNSLKPEDTAVYYCAKDQVPYYYVFGVYDYDYWGQGTQVTVSS	low polyreactivity
QVQLVESGGGLVQAGGSLRLSCAASGRTFAIYAMGWYRQAPGKERELVATIRGGSTYYADSVKGRFTISRDNAKNTVYLQMNSLKPEDTAVYYCAAEFLYASVYYSYWGQGTQVTVSS	high polyreactivity
QVQLVESGGGLVQAGGSLRLSCAASGRIFTRNGMGWYRQAPGKERELVAASTRGGRTNYADSVKGRFTISRDNAKNTVYLQMNSLKPEDTAVYYCAAGFPWSYYGSYDYWGQGTQVTVSS	high polyreactivity
QVHLVESGGGLVQAGGSLRLSCAASGSIFYINAMGWYRQPPGKDREFVARISWRSGSTSYADSVKGRFTISRDNAKNTVYLQMNSLKPEDTAVYYCNAGVFANDNGGRRDQFTWEYEYWGQGTQVTVSS	low polyreactivity
QVQLVESGGGLVQAGGSLRLSCAASGFIFVAYAMGWYRQAPGKERELVATIDSSGGTTYYADSVKGRFTISRDNAKNTVYLQMNSLKPEDTAVYYCNAPIYPYREFGRDYWGQGTQVTVSS	low polyreactivity
QVHLVESGGGLVQAGGSLRLCCAASGRIFDHNTKGWYRQAPGKEMEFVAAITVSAGTTYYADSVKGRFTISSDNAKNTVYLQMNSLKPEDTAVYYCAAYYVYSYWDWGDYWGQGTQVTVSS	low polyreactivity
QVQLVESGGGLVQAGGSLRLSCAASGRTFGSYAMGWYRQAPGKERELVAGISWSGGITYYADSVKGRFTISRDNAKNTVYLQMNSLKPEDTAVYYCAASPRRDENAGRVRLYYWGQGTQVTVSS	high polyreactivity
QVQLVESGGGLVQAGGSLRLSCAASGSIFSYYAMGRYRQAPGKEREIVAAISWSGGSTYYADSVKGRFTISRDNAKNTVYLQMNSLKPEDTAVYYCAAELSLSWLVPDVPYYYWGQGTQVTVSS	low polyreactivity
QVQLVESGGGLVQAGGSLRLSCAASGITFFVYDMGWYRQAPGKERELVAAITWSGDSTYYADSVKGRFTISRDNAKNTVYLQMNSLKPEDTAVYYCAAQFDVYYSRQPYDYNRSGYWGQGTQVTVSS	low polyreactivity
QVQLVESGGGLVQAGGSPRLSCAASGRTFRSNAMGWYRQAPGKERELVAAISWSGGSTYYADSVKGRFTISRDNAKNTVYLQLNSLKPEDTAVYYCAAGSYWSPYGQSFWPKYDYWGQGSQVTVSS	high polyreactivity
QVKLVESGGGLVQAGGSLRLSCADSGSIFVPNTRGWYRQAPGKERELVAAITAGGSTDYADSVKGRFTISRDNAKNTVYLQMNSLKPEDTAVYYCNADVYSWVSGKEGDYWGQGTQVTVTS	low polyreactivity
QVQLVESGGGLVQAGGSLRLSCAASGNIFTGNAMGWYRQAPGKERELVAAISSGGGSTYYADSVKGRFTISRDNAKNTVYLQMNSLKPEDTAVYYCAASRVRYSYGYPYYYWGQGTQVTVSS	high polyreactivity
QVQLVESGGGLVQAGGSLRLSCAASGHIFFYYTMGWYRQAPGKERELVAGIPIGGSTNYADSVKGRFTISRDNAKNTVYLQMNSLKPVDTAVYYFNVVKYVYIYSFWEYYYWGQGTQVTVSS	low polyreactivity
